Here are results for nine molecules from patent publication US20240067734A1 (Hoffmann-La Roche, published 2024).

For test [1], the target named is T1, human NKG2D expressed on cells (human, UniProt P26718 1-216).
T1 construct: the cell type is named under assay; also called NKG2D on NK92 cells; HEK293T human NKG2D
T1 chain: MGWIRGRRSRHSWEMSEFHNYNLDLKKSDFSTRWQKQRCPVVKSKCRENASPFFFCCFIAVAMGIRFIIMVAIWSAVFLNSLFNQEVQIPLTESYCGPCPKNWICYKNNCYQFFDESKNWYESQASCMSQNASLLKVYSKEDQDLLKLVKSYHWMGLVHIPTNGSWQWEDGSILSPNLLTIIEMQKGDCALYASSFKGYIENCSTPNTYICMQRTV
As to the kind of experiment: flow cytometry; expanded human γδ T cells. Here is the method: Viability of expanded γδ T cells was checked and cells were adjusted to a density of 1 mio cells/ml in FACS buffer. 100 μl of these cell suspensions (containing 0.1 mio cells) were seeded into a 96 well round bottom plate. The plate was centrifuged for 4 min at 400×g and the supernatant was removed. Then 40 μl of the diluted NKG2D antibodies were added to the cells and incubated for additional 30 min at 4° C. After the incubation the cells were washed twice with 150 μl FACS buffer per well. Then 20 μl of the diluted secondary FITC anti-human Fc specific secondary antibody (Jackson ImmunoResearch, #109-096-098) was added to the cells. The cells were incubated for an additional 30 min at 4° C. To remove unbound antibody, the cells were washed again twice with 150 μl per well FACS buffer. To fix the cells 100 μl of FACS buffer containing 1% PFA were added to the wells. Before measuring the cells were re-suspended in 150 μl FACS buffer. The fluorescence was measured using a BD CantoII flow cytometer.

For another test, the target named is T2, di cyNKG2D ECD Fc avi (cynomolgus, biotinylated at the avi-tag).
T2 construct: Dimeric fusion of cynomolgus NKG2D ECD to the C-terminus of an avi-tagged human IgG1 Fc; also called recombinant cynomolgus NKG2D
As to the kind of experiment: SPR Biacore; IgG captured by anti-Fab, antigen analyte. Here is the method: (§1) Around 1500 resonance units (RU) of the capture antibody (10 μg/ml human Fab Capture Kit, GE Healthcare Life Sciences, #28958325) were coupled onto a CM5 chip (GE Healthcare, #BR-1005-30) using a BIACORE® B4000 instrument (GE Healthcare) at pH 5.0 by using an amine coupling kit supplied by GE Healthcare. The sample and system buffer was PBS-T (10 mM phosphate buffered saline including 0.05% TWEEN® (polysorbate) 20) pH 7.4. The flow cells were set to 25° C.—and the sample block set to 12° C.—and primed twice with running buffer. The antibody was captured by injecting a ˜10 μg/ml solution for 60 sec at a flow rate of 10 μl/min. Association was measured by injection of di huNKG2D ECD Fc avi (SEQ ID NO: 96) or di cyNKG2D ECD Fc avi (SEQ ID NO: 97) in various concentrations in solution for 180 s at a flow rate of 30 μl/min starting with 600 nM, 300 nM, 150 nM following […] dilutions. The dissociation phase was monitored for up to 450 s and triggered by switching from the sample solution to running buffer. The surface was regenerated by 2×90 s washing with a glycine pH 2.1 solution at a flow rate of 30 μl/min and an additional stabilization period of 180 s. Bulk refractive index differences were corrected by subtracting the response obtained from an anti-human Fab surface. Blank injections were also subtracted (=double referencing). For calculation of KD, kₐ and kd (see Table 8), the Langmuir 1:1 model in the BIACORE® 4000 Evaluation software 1.1 (GE Healthcare) or TraceDrawer 1.6.1 (Ridgeview Instruments AB) were used.
For orientation: In SPR one partner is held on a chip, and binding of the other changes the refractive index at the surface.

A further test has as its target T3, di huNKG2D ECD Fc avi (human, biotinylated at the avi-tag).
T3 construct: Dimeric fusion of human NKG2D ECD to the C-terminus of an avi-tagged human IgG1 Fc
Described as above. The method, then: as §1

Test [2] concerns the target T1, human NKG2D expressed on cells. As to the kind of experiment: cell ELISA; HEK293T expressing human NKG2D and DAP10. The method, then: 25 μl/well of HEK293T cells recombinantly expressing full-length human NKG2D and DAP10 (15000 cells/well) or unmodified HEK293T were seeded into 384-well poly-D-lysine plates (Corning, #356662) and incubated overnight at 37° C. in cell culture medium (Gibco, #42430-25+10% FCS (PAN, #P30-2006)+1 μg/ml puromycin+1× penicillin/streptomycin (Roche, #11074440001, 500×)). The next day after removal of medium, 25 μl anti-NKG2D antibodies were added in 1:3 dilutions starting at a concentration of 3 μg/ml or alternatively with a 1:20 dilution of the original sample and incubated for 2 h at 4° C. After washing (1×90 μl in PBST) cells were fixed by addition of 30 μl/well glutaraldehyde to a final concentration of 0.05% (Sigma, #G5882), 10 min at room temperature. After washing (2×90 μl/well PBST-buffer), 25 μl/well anti hu kappa POD (Millipore, #AP502P, 1:2000) was added and incubated at RT for 1 h. After washing (3×90 μl/well with PBST-buffer) 25 μl/well TMB substrate (Roche, #11835033001) was added and incubated for 6-10 min. Measurement were performed on a Tecan Safire 2 instrument at OD 370/492 nm.
All antibodies bound specifically and in a dose-dependent manner to HEK293T cells that recombinantly expressed full-length human NKG2D and DAP10, except for the weak binders clone 013 and 014 for which binding could not be detected in this assay. None of these antibodies bound to non-transfected HEK293T reference cells.
(In general: An ELISA detects its analyte on a solid surface through an enzyme-linked reagent.)

T2 sequence (chain, as listed by the source limits assumed): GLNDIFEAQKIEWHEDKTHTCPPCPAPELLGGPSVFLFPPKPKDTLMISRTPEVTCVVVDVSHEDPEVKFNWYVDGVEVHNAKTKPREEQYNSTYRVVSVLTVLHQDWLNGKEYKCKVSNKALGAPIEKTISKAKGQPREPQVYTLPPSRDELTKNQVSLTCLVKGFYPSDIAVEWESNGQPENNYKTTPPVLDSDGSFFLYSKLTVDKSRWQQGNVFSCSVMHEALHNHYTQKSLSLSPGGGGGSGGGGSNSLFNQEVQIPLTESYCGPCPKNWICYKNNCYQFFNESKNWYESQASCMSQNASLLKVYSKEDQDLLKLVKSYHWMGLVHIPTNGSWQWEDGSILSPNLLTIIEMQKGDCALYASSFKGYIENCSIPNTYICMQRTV

B1: anti-NKG2D antibody 5C5 (IgG) (antibody, V domains shown)
VH: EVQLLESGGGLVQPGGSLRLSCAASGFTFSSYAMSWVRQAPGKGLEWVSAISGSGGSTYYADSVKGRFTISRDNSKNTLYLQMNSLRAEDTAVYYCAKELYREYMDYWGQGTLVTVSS
VL: SSELTQDPAVSVALGQTVRITCQGDSLRSYYASWYQQKPGQAPVLVIYGKNNRPSGIPDRFSGSSSGNTASLTITGAQAEDEADYYCNSRDSFSIHQNVFGGGTKLTVL
notes: also called clone 5C5
Consider B1, for which it took 0.28 nM to reach a half-maximal effect in test [1] (EC50). Moreover, in the test with di cyNKG2D ECD Fc avi, the dissociation constant (Kd) (usually the concentration at which binding is half-saturated) is 8.4 nM, the koff (commonly a measure of how fast the partners let go of each other) is 0.00091 s⁻¹ and the kon (commonly the rate constant with which the complex forms) turned out to be 110000 M⁻¹ s⁻¹.

B2: anti-NKG2D antibody clone 395 (antibody, V domains shown)
VH: QEQLEQSGGGLVTPGGSLKLCCTASGFDFNTFWMTWVRQAPGKGLEWIGCIHGGSGSRDYASWVNGRFTLSRDIDQSTACLQVNSLTAADTAMYYCARPGYRSWSKTFDLWGQGTMVTVSS
VL: DIQMTQSPSSLSASVGDRVTITCRASQDISGALNWYQQKPGKAPNLLIYAASSLQSGVPSRFSGSGSGTDYTLTISSLQPEDFATYYCQQANSFPLTFGGGTKVEIK
notes: From transgenic rabbits; rabbit VH, human VL
On to B2, for which, in test [1], the midpoint of the response, the EC50, lay at 1.94 nM. In the test with di huNKG2D ECD Fc avi, this molecule had a Kd of 0.55 nM, a koff of 3.2e-05 s⁻¹ and a kon of 57000 M⁻¹ s⁻¹. Also, in the test with di cyNKG2D ECD Fc avi, the affinity, expressed as Kd, was 0.78 nM; the koff is 3.6e-05 s⁻¹; the on-rate constant (kon) was found to be 47000 M⁻¹ s⁻¹. The OD max in test [2] was 0.8 OD.

B3: anti-NKG2D antibody clone 018 (antibody, V domains shown)
VH: QQLEQSGGGLVTPGGSLKVCCKASGFDFTTYWMTWVRQAPEKGLEWIGCIHGGDSGATYYANWVNGRFTLSRDIDQSTGCLQLNSLTAADTAMYYCARPGYPSWSKTFDLWGQGTMVTVSS
VL: DIQMTQSPSSLSASVGDRVTITCQASQDISNALNWYQQKPGKAPKLLIYAASTLQSGVPSRFSGSGSGTDFTLTISSLQPEDFATYYCQHSNSFPLTFGGGTKVEIK
notes: From transgenic rabbits
In the test with di huNKG2D ECD Fc avi, B3 showed a Kd of 29 nM, a koff of 0.0013 s⁻¹ and a kon of 43000 M⁻¹ s⁻¹. In the test with di cyNKG2D ECD Fc avi, this molecule yielded a dissociation constant (Kd) of 21 nM, a dissociation rate constant (koff) of 0.0008 s⁻¹ and a kon of 39000 M⁻¹ s⁻¹. Besides, in test [2], a half-maximal response (EC50) required 1.9 nM and the OD max is 0.8 OD.

B4: anti-NKG2D antibody clone 001 (antibody, V domains shown)
VH: QQLEQSGGGLVTPGGSLKLCCIGSGFDFNTYWMTWVRQAPGKGLEWIGCIHGGSSGSTYYASWVNGRFTLSRDIDQSTGCLQVNSLTAADTAMYYCARPGYRSWSKTFDLWGQGTMVTVSS
VL: DIQMTQSPSSLSASVGDRVTITCRASQDISESLNWYQQKPGKAPKLLIYAASSLQSGVPSRFSGSGSGTDYTLTISSLQPEDFATYYCQQANSFPLTFGGGTKVEIK
notes: From transgenic rabbits
On to B4, for which, in the test with di huNKG2D ECD Fc avi, the Kd stood at 8.5 nM, the koff was 0.00045 s⁻¹ and the kon turned out to be 52000 M⁻¹ s⁻¹. In the test with di cyNKG2D ECD Fc avi, this molecule showed a Kd of 4.5 nM, a koff of 0.00021 s⁻¹ and a kon of 48000 M⁻¹ s⁻¹. Also, in test [2], it took 2.2 nM to reach a half-maximal effect (EC50) and the OD max worked out at 1 OD.

B5: anti-NKG2D antibody clone 296 (antibody, V domains shown)
VH: EVQLLESGGGLVQPGGSLRLSCAASGFTFSSYAMSWVRQAPGKGLEWVSAIGIGGGGTYYADSVKGRFTISRDNSKNTLYLQMNSLRAEDTAVYHCAKGASFDFINFFPYWGQGTLVTVSS
VL: DIQMTQSPSSLSASVGDRVTITCRASQGISNDLAWYQQKPGKAPKLLIYAASSLQSGVPSRFSGSGSGTDFTLTISSLQPEDFATYYCQQTYSTPLTFGGGTKVEIK
notes: From transgenic rabbits
In the case of B5, the EC50 – broadly, the concentration giving half of the maximal effect – in test [1] came out at 1.32 nM. In the test with di huNKG2D ECD Fc avi, this molecule showed a Kd of 3.8 nM, an off-rate (koff) of 0.00079 s⁻¹ and a kon of 210000 M⁻¹ s⁻¹. In addition, in the test with di cyNKG2D ECD Fc avi, the “fold difference of KD, cynomolgus vs human NKG2D” value is 187 fold. The OD max in test [2] was determined as 0.5 OD.

B6: anti-NKG2D antibody clone 230 (antibody, V domains shown)
VH: QQLEQSGGGLVKPGGSLELCCIASGFDFSTYWMTWVRQAPGKGLEWIGCIHGGGSGTTSYASWVNGRFTLSRDIDQSTGCLQLTSLTAADTAMYYCARPGYRSWSKTFDLWGQGTMVTVSS
VL: DIQMTQSPSSLSASVGDRVTITCQANQDISNALNWYQQKPGKAPKLLIYAASSLQSGVPSRFSGSGSGTDFTLTISSLQPEDFAAYYCQQAASFPLTFGGGTKVEIK
notes: From transgenic rabbits
Take B6: the EC50 in test [1] stood at 3.31 nM. In the test with di huNKG2D ECD Fc avi, this molecule had a Kd of 3.6 nM, a koff of 0.00016 s⁻¹ and a kon of 43000 M⁻¹ s⁻¹. In addition, in the test with di cyNKG2D ECD Fc avi, binding was characterised by a dissociation constant (Kd) of 2.6 nM, the dissociation rate constant (koff) amounted to 0.0001 s⁻¹ and the on-rate (kon) is 40000 M⁻¹ s⁻¹. Moreover, the OD max in test [2] is 0.7 OD.

B7: anti-NKG2D antibody clone 320 (antibody, V domains shown)
VH: EVQLLESGGGLVQPGGSLRLSCATSGFTFSDYAMSWVRQAPGKGLEWVSYNSFSVGSTDYADSVKGRFTISRDNSKNTLYLQMNSLRAEDTAVYYCSKHSGNYYTGPFHYWGQGTLVTVSS
VL: DIQLTQSPSFLSASVGDRVTITCRASQGISSYLAWYQQKPGKAPKLLIYAASSLESGVPSRFSGSGSGTDFTLTISSLQPEDFATYYCQQSYSTPITFGQGTRLEIK
notes: From transgenic rabbits; also called 320 IgG
In turn, B7 had an EC50 in test [1] of 3.84 nM. Moreover, in the test with di huNKG2D ECD Fc avi, binding was characterised by a dissociation constant (Kd) of 110 nM, the koff amounted to 0.0091 s⁻¹ and the kon turned out to be 83000 M⁻¹ s⁻¹. In the test with di cyNKG2D ECD Fc avi, the Kd came to 61 nM, the koff worked out at 0.0047 s⁻¹ and the kon amounted to 78000 M⁻¹ s⁻¹. The molecule further came in with an OD max in test [2] of 1 OD.

B8: anti-NKG2D antibody 13C6 (IgG) (antibody, V domains shown)
VH: EVQLVQSGAEVKKPGESLKISCKGSGYSFTSYWIGWVRQMPGKGLEWMGIIYPGDSDTRYSPSFQGQVTISADKSISTAYLQWSSLKASDTAMYYCARLYPVGVYFDYWGQGTLVTVSS
VL: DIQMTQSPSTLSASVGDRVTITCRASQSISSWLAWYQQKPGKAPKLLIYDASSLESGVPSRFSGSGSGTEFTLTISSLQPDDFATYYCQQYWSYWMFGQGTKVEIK
notes: also called clone 13C6
Take B8: in the test with di huNKG2D ECD Fc avi, the dissociation constant (Kd) came to 8.2 nM, the off-rate constant (koff) was found to be 0.00028 s⁻¹ and the kon stood at 34000 M⁻¹ s⁻¹. Further, in the test with di cyNKG2D ECD Fc avi, the Kd worked out at 47 nM, the koff is 0.00092 s⁻¹ and the kon turned out to be 20000 M⁻¹ s⁻¹.

B9: anti-NKG2D antibody clone 013 (antibody, V domains shown)
VH: EQSGGGAGGGLVKPGGSLELCCKASGFDFSIYWMSWVRQSPGKGLEWIGRIYGGSSDYTAYASWVNGRFTLSRDIDQSTGCLQLNSLTAADTAMYYCVRLNPSFSRSFDYWGQGTLVTVSS
VL: DIQMTQSPSSVSASVGDRVTITCRASQGIFSWLVWYQQKPGKAPELLMYGASTLQSGVPSRFSGSGSGTDFTLTISSLQPEDFATYYCQQGYSTPYTFGQGTKVEIK
notes: From transgenic rabbits
On to B9, for which the EC50 in test [1] came out at 133 nM. In addition, in the test with di huNKG2D ECD Fc avi, the Kd is 16 nM, the koff stood at 0.0013 s⁻¹ and the kon is 84000 M⁻¹ s⁻¹. In addition, in the test with di cyNKG2D ECD Fc avi, binding was put at a Kd of 7.9 nM, the koff was determined as 0.00064 s⁻¹ and the on-rate (kon) came to 81000 M⁻¹ s⁻¹.
